Data from patent publication US20240117054A1 (DRAGONFLY THERAPEUTICS, published 2024).
One block for each binder: values may come before it.

Legend:
[1] = molecular target: T1, human NKG2D (human, UniProt P26718 78-216, limits assumed); assay: assay not described
T1 sequence (looked up): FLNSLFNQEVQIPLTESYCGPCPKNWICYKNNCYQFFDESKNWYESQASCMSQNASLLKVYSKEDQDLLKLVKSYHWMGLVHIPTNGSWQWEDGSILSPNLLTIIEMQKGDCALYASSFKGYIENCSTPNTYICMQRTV

[2] = molecular target: T2, hFLT3-His fusion protein (human, UniProt P36888 27-541, limits assumed); assay: SPR, purified murine subclone, hFLT3-His, 1:1 binding fit
T2 construct: Soluble recombinant antigen used for immunisation, ELISA, SPR and BLI binning; also called recombinant hFLT3 protein; not shown: His tag
T2 sequence (looked up): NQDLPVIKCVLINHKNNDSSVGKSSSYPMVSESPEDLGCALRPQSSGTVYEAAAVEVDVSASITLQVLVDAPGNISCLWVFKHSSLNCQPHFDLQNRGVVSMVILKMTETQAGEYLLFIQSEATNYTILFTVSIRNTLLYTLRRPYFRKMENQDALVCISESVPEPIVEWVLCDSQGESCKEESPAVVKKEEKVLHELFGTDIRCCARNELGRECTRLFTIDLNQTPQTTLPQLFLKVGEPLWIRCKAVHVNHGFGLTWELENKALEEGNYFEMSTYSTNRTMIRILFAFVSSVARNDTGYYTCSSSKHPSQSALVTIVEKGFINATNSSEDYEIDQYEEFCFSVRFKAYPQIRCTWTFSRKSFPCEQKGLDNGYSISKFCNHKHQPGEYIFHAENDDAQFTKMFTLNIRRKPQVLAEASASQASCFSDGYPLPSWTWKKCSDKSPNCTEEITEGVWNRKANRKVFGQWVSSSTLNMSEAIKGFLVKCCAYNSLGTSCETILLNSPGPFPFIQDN

binding result [1]: no binding
B1: F3′-1158 dead-2D (bispecific antibody, human IgG1, kappa)
chain: DIVMTQSPDSLAVSLGERATINCRASESVDTYGSSFVHWYQQKPGQPPKLLIYLASNLESGVPDRFSGSGSGTDFTLTISSLQAEDVAVYYCQQNNEEPWTFGCGTKVEIKGGGGSGGGGSGGGGSGGGGSQVQLVQSGAEVKKPGASVKVSCKASGYTFTRYVMHWVRQAPGQCLEWMGFINPYNDDTKYNEKFKGRVTITRDTSASTAYMELSSLRSEDTAVYYCARWRQLGSLDSWGQGTTVTVSSGSDKTHTCPPCPAPELLGGPSVFLFPPKPKDTLMISRTPEVTCVVVDVSHEDPEVKFNWYVDGVEVHNAKTKPREEQYNSTYRVVSVLTVLHQDWLNGKEYKCKVSNKALPAPIEKTISKAKGQPREPRVYTLPPCRDELTKNQVSLTCLVKGFYPSDIAVEWESNGQPENNYKTTPPVLVSDGSFTLYSKLTVDKSRWQQGNVFSCSVMHEALHNHYTQKSLSLSPG
heavy: EVQLVESGGGLVKPGGSLRLSCAASGFTFSSYSMNWVRQAPGKGLEWVSSISSSSSYIYYADSVKGRFTISRDNAKNSLYLQMNSLRAEDTAVYYCARGAPIGAAAGWFDPWGQGTLVTVSSASTKGPSVFPLAPSSKSTSGGTAALGCLVKDYFPEPVTVSWNSGALTSGVHTFPAVLQSSGLYSLSSVVTVPSSSLGTQTYICNVNHKPSNTKVDKKVEPKSCDKTHTCPPCPAPELLGGPSVFLFPPKPKDTLMISRTPEVTCVVVDVSHEDPEVKFNWYVDGVEVHNAKTKPREEQYNSTYRVVSVLTVLHQDWLNGKEYKCKVSNKALPAPIEKTISKAKGQPREPQVCTLPPSRDELTENQVSLTCLVKGFYPSDIAVEWESNGQPENNYKTTPPVLDSDGSFFLYSWLTVDKSRWQQGNVFSCSVMHEALHNHYTQKSLSLSPG
light: DIQMTQSPSTLSASVGDRVTITCRASNSISSWLAWYQQKPGKAPKLLIYEASSTKSGVPSRFSGSGSGTEFTLTISSLQPDDFATYYCQQYDDLPTFGGGTKVEIKRTVAAPSVFIFPPSDEQLKSGTASVVCLLNNFYPREAKVQWKVDNALQSGNSQESVTEQDSKDSTYSLSSTLTLSKADYEKHKVYACEVTHQGLSSPVTKSFNRGEC
notes: also called first variant

binding result [2]: binds
B2: 14H8.E7 (antibody, V domains shown)
VH: EVQLQESGAELVKPGASVKLSCKASGYTFTNYWINWLKQRPGQGLEWIGNIYPGSTIINYNEKFKNKATLTVDTSSSTAYMQLSSLTSDDSAVYYCARRVVYLYFDSWGQGTTLTVSS
VL: QIVLTQSPAIMSASPGEKVTMTCSASSSVSYMHWYQQKSGTSPKRWIFDTSKLASGVPVRFSGSGSGTSYSLTITNMETEDAATYYCQQWSSKSPTFGGGTKLEIK
